Our source for the ELISA_avg values is patent US20250026849A1 (ARCELLX, published 2025).

Sequences and labels used below:
T1: P26 (human, UniProt P02771 381-609, limits assumed)
T1 construct: also called AFP p26
T1 sequence: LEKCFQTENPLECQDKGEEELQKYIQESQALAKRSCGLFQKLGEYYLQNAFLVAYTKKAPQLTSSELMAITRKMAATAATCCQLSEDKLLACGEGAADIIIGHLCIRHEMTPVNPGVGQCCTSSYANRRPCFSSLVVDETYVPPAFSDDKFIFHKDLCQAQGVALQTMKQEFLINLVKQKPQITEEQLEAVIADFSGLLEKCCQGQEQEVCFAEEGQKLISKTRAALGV

T2: BCMA (Homo sapiens (Human), UniProt Q02223 1-54, limits assumed)
T2 sequence: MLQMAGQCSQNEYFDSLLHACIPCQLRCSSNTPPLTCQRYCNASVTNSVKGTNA

B1: D domain SEQ ID NO: 887 (designed binder)
chain: MGSWTEFWHRLEAIDSRLWALGGSEAELAAFEKEIAAFESELQAYKGKGNPEVESLREHAAHIRVWLQAYRHN
B2: D domain SEQ ID NO: 881 (designed binder)
chain: MGSWVEFVGRLNAIDARLWALGGSEAELAAFEKEIAAFESELQAYKGKGNPEVEELRHHAAEIRNWLQAYRHN
B3: D domain SEQ ID NO: 888 (designed binder)
chain: MGSWTEFQNRLNAIDHRLWALGGSEAELAAFEKEIAAFESELQAYKGKGNPEVESLREHAAKIRVWLQAYRHN
B4: D domain SEQ ID NO: 886 (designed binder)
chain: MGSWYEFRARLLAIDERLWALGGSEAELAAFEKEIAAFESELQAYKGKGNPEVEHLREHAAHIRNFLQAYRHN
B5: D domain SEQ ID NO: 880 (designed binder)
chain: MGSWVEFHYRLQAIDARLWALGGSEAELAAFEKEIAAFESELQAYKGKGNPEVEELRVHAAHIRKWLQAYRHN
B6: D domain SEQ ID NO: 891 (designed binder)
chain: MGSWTEFEKRLHAIDYRLWALGGSEAELAAFEKEIAAFESELQAYKGKGNPEVEDLREHAAAIRHWLQAYRHN
B7: D domain SEQ ID NO: 878 (designed binder)
chain: MGSWSEFVKRLDAIDQRLWALGGSEAELAAFEKEIAAFESELQAYKGKGNPEVESLRVHAAAIRAWLQAYRHN
B8: D domain SEQ ID NO: 879 (designed binder)
chain: MGSWEEFYYRLEAIDARLFALGGSEAELAAFEKEIAAFESELQAYKGKGNPEVEELRVHAAHIRDWLQAYRHN
B9: D domain SEQ ID NO: 868 (designed binder)
chain: MGSWLEFYHRLNAIDSRLWALGGSEAELAAFEKEIAAFESELQAYKGKGNPEVESLRDHAAHIREWLQAYRHN
B10: D domain SEQ ID NO: 859 (designed binder)
chain: MGSWFEFYDRLNAIDARLWALGGSEAELAAFEKEIAAFESELQAYKGKGNPEVENLRVHAAAIREWLQAYRHN
B11: D domain SEQ ID NO: 884 (designed binder)
chain: MGSWYEFVVRLFAIDERLWALGGSEAELAAFEKEIAAFESELQAYKGKGNPEVESLREHAAHIRSWLQAYRHN
B12: D domain SEQ ID NO: 889 (designed binder)
chain: MGSWSEFFKRLEAIDRRLWALGGSEAELAAFEKEIAAFESELQAYKGKGNPEVEELREHAAHIRVWLQAYRHN
B13: D domain SEQ ID NO: 877 (designed binder)
chain: MGSWIEFYWRLEAIDQRLWALGGSEAELAAFEKEIAAFESELQAYKGKGNPEVEDLRVHAAAIRWWLQAYRHN
B14: D domain SEQ ID NO: 885 (designed binder)
chain: MGSWYEFYLRLDAIDHRLWALGGSEAELAAFEKEIAAFESELQAYKGKGNPEVEMLREHAAHIRKWLQAYRHN
B15: D domain SEQ ID NO: 876 (designed binder)
chain: MGSWFEFYERLNAIDSRLWALGGSEAELAAFEKEIAAFESELQAYKGKGNPEVEKLRAHAASIRTWLQAYRHN
B16: D domain SEQ ID NO: 883 (designed binder)
chain: MGSWNEFFQRLNAIDERLWALGGSEAELAAFEKEIAAFESELQAYKGKGNPEVEDLRQHAANIRWWLQAYRHN
B17: D domain SEQ ID NO: 882 (designed binder)
chain: MGSWNEFMDRLNAIDNRLWALGGSEAELAAFEKEIAAFESELQAYKGKGNPEVENLRKQAASIRLWLQAYRHN
B18: D domain SEQ ID NO: 890 (designed binder)
chain: MGSWYEFQQRLEAIDTRLWALGGSEAELAAFEKEIAAFESELQAYKGKGNPEVEELREHAAHIRHWLQAYRHN
B19: D domain SEQ ID NO: 854 (designed binder)
chain: MGSWVEFSGRLIAIDNRLWALGGSEAELAAFEKEIAAFESELQAYKGKGNPEVEYLRMWAAEIRYILQAYRHN
B20: D domain SEQ ID NO: 856 (designed binder)
chain: MGSWHEFMERLIAIDGRLWALGGSEAELAAFEKEIAAFESELQAYKGKGNPEVEYLRFVAAFIRDVLQAYRHN
B21: D domain SEQ ID NO: 852 (designed binder)
chain: MGSWHEFITRLEAIDQRLWALGGSEAELAAFEKEIAAFESELQAYKGKGNPEVEYLRFWAAEIRFILQAYRHN
B22: D domain SEQ ID NO: 853 (designed binder)
chain: MGSWMEFFDRLVAIDERLWALGGSEAELAAFEKEIAAFESELQAYKGKGNPEVEYLRMWAAEIRFLLQAYRHN
B23: D domain SEQ ID NO: 855 (designed binder)
chain: MGSWVEFHHRLFAIDERLWALGGSEAELAAFEKEIAAFESELQAYKGKGNPEVEYLRMVAAEIRYILQAYRHN
B24: D domain SEQ ID NO: 851 (designed binder)
chain: MGSWHEFYDRLDAIYFRLWALGGSEAELAAFEKEIAAFESELQAYKGKGNPEVELLRLLAAEIRKELQAYRHN
B25: D domain SEQ ID NO: 857 (designed binder)
chain: MGSWKEFIQRLDAIHYRLWALGGSEAELAAFEKEIAAFESELQAYKGKGNPEVEYLRFVAAFIRFELQAYRHN
B26: D domain SEQ ID NO: 858 (designed binder)
chain: MGSWSEFIFRLDAIHSRLQALGGSEAELAAFEKEIAAFESELQAYKGKGNPEVEYLRFIAAEIRLKLQAYRHN
B27: D-domain SEQ ID NO: 74 (designed binder)
chain: MGSWFEFQHRLEAISMRLHALGGSEAELAAFEKEIAAFESELQAYKGKGNPEVEELRWQAAYIRVVLQAYRHN
B28: D-domain SEQ ID NO: 105 (designed binder)
chain: MGSWIEFSHRLEAIVDRLGALGGSEAELAAFEKEIAAFESELQAYKGKGNPEVEELRNTAAIIRVYLQAYRHN
B29: D-domain SEQ ID NO: 77 (designed binder)
chain: MGSWYEFQVRLQAISWRLKALGGSEAELAAFEKEIAAFESELQAYKGKGNHEVEELRIQAALIRVMLQAYRHN
B30: D-domain SEQ ID NO: 75 (designed binder)
chain: MGSWVEFQSRLEAIATRLRALGGSEAELAAFEKEIAAFESELQAYKGKGNPEVEELRWQAAWIRMMLQAYRHN
B31: D-domain SEQ ID NO: 76 (designed binder)
chain: MGSWEEFQYRLGAIAARLQALGGSEAELAAFEKEIAAFESELQAYKGKGNPEVEELRWQAAMIRFMLQAYRHN
B32: D-domain SEQ ID NO: 102 (designed binder)
chain: MGSWVEFYDRLAAIRKRLYALGGSEAELAAFEKEIAAFESELQAYKGKGNPEVEELRFRAALIRIWLQAYRHN
B33: D-domain SEQ ID NO: 108 (designed binder)
chain: MGSWSEFQQRLHAIRTRLYALGGSEAELAAFEKEIAAFESELQAYKGKGNPEVEELRFEAAIIRVMLQAYRHN
B34: D-domain SEQ ID NO: 109 (designed binder)
chain: MGSWYEFQNRLGAINRRLNALGGSEAELAAFEKEIAAFESELQAYKGKGNPEVEELRFEAAIIRVMLQAYRHN
B35: D-domain SEQ ID NO: 110 (designed binder)
chain: MGSWQEFTGRLHAIRHRLEALGGSEAELAAFEKEIAAFESELQAYKGKGNPEVEELRFEAAYIRVWLQAYRHN
B36: D-domain SEQ ID NO: 70 (designed binder)
chain: MGSWSEFYDRLYAINQRLFALGGSEAELAAFEKEIAAFESELQAYKGKGNPEVEDLRWYAAFIRAQLQAYRHN
B37: D-domain SEQ ID NO: 71 (designed binder)
chain: MGSWYEFYDRLDAIVHRLDALGGSEAELAAFEKEIAAFESELQAYKGKGNPEVENLRWYAAMIRVRLQAYRHN
B38: D-domain SEQ ID NO: 106 (designed binder)
chain: MGSWEEFSDRLEAILRRLDALGGSEAELAAFEKEIAAFESELQAYKGKGNPEVEDLRFAAAIIRVQLQAYRHN
B39: D-domain SEQ ID NO: 107 (designed binder)
chain: MGSWMEFSHRLDAIHERLYALGGSEAELAAFEKEIAAFESELQAYKGKGNPEVEDLRFAAAIIRVQLQAYRHN
B40: D-domain SEQ ID NO: 98 (designed binder)
chain: MGSWSEFRGRLQAIHSRLNALGGSEAELAAFEKEIAAFESELQAYKGKGNPEVEELRYSAAIIRIYLQAYRHN

In the first assay the target is T1, P26. Description: ELISA, format not described. Also noted: unit not given here. On the technique in general: An ELISA detects its analyte on a solid surface through an enzyme-linked reagent.
Molecule B1 gave an ELISA_avg of 13.2.
The molecule B2 displayed an ELISA_avg of 26.
Consider B3, for which the ELISA_avg was found to be 30.5.
B4 registered an ELISA_avg of 20.9.
Still for that read-out and setting: under B5 stands 14.8; under B6, 17.1; under B7, 27.
The molecule B8 displayed an ELISA_avg of 30.3.
B9 returned an ELISA_avg of 19.2.
The same measure, in the same setting: for B10 the value was 5.92; for B11, 18.2; for B12, 30.2.
With B13, the ELISA_avg was found to be 9.4.
For the molecule B14, the ELISA_avg was 16.
As for B15, the ELISA_avg is 27.1.
In the case of B16, the ELISA_avg was 28.7.
For the molecule B17, the ELISA_avg turned out to be 10.
For the molecule B18, the ELISA_avg came to 27.3.
Molecule B19 had an ELISA_avg of 5.28.
With B20, the ELISA_avg is 17.9.
The molecule B21 showed an ELISA_avg of 16.9.
B22 displayed an ELISA_avg of 18.6.
As to B23, the ELISA_avg was 21.4.
In the case of B24, the ELISA_avg was 9.6.
As to B25, the ELISA_avg is 18.4.
In turn, B26 yielded an ELISA_avg of 28.3.

For the next assay, the target named is T2, BCMA. Description: ELISA, format not described. Also noted: unit not given here.
As to B27, the ELISA_avg was found to be 4.05.
Turning to B28, the ELISA_avg stood at 18.7.
Consider B29, for which the ELISA_avg came out at 14.2.
Turning to B30, the ELISA_avg was determined as 18.
Same read-out and setting: under B31 stands 3.11; under B32, 9.76.
The same measure, in the same setting: under B33 stands 11.6; under B34, 4.68; under B35, 3.31.
B36 came in with an ELISA_avg of 5.98.
Turning to B37, the ELISA_avg came to 14.7.
For B38, the ELISA_avg worked out at 9.08.
In the case of B39, the ELISA_avg was 6.3.
As to B40, the ELISA_avg amounted to 7.58.
